pKd: −log10 of the molar value. Where two headings read alike, the source gives them in different places.

This note sets out measurements from paper PMC4764553, “Human cytomegalovirus IE1 protein alters the higher-order chromatin structure by targeting the acidic patch of the nucleosome” (eLife, 2016).

Common to all, as to experiment: ITC
The subject of data set [1] is IE1-CTD (chromatin-tethering domain peptide);human histone octamer WT (human cytomegalovirus;Homo sapiens).
The test system of data set [2] is IE1 full length;human histone octamer WT (human cytomegalovirus (Towne);Homo sapiens).
For data set [3], the system named is IE1-CTD (chromatin-tethering domain peptide);human histone octamer WT (human cytomegalovirus;Homo sapiens). This is another data set of the same source.

With 147-bp Widom 601 (human NCP), the results for the pKd in data set [1], in data set [2] and in data set [3] were 5.65, 4.95 and 6.40, respectively.
